According to doi:10.1101/2023.04.28.538712 (bioRxiv, 2023):
Numbering of substitutions follows the chain as printed.

Experiments:
[1] = target: T1, β2-microglobulin, biotinylated (Homo sapiens, UniProt P61769); experiment: BLI; Octet-BLI K2; SA sensors loaded with 50 nM biotinylated β2-microglobulin; Nb24 variants in solution (25-400 nM in Fig. 5C); PBS + 0.05% Tween-20, 30°C, 1000 rpm; global fit, 1:1 partial dissociation binding model; KD mean of 3 independent experiments; settings: both partners purified
T1 construct: β2-microglobulin, human; Surmise: such E. coli constructs are usually the mature protein with an added first methionine; also called human β2-microglobulin; recombinant β2-microglobulin
T1 sequence (P61769 21-119): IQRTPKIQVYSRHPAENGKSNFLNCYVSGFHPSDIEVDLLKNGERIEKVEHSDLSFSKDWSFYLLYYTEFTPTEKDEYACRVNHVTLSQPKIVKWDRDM

[2] = target: T2, SARS-CoV-2 Spike receptor-binding domain (RBD), biotinylated (SARS-CoV-2, strain ; …, UniProt P0DTC2); experiment: BLI; settings: both partners purified
T2 construct: also called SARS-CoV-2 RBD; SarS-CoV-2 RBD

B1: Nb24 humanised variant, AbNatiV Exhaustive sampling (+buried) (VHH)
VHH: EVQLVESGGGLVQPGGSLRLSCAASGYTDSRYCMAWFRQAPGKGLEWVARINSGRDITYYADSVKGRFTISRDNAKNTVYLQMDSLKPEDTAVYYCATDIPLRCRDIVAKGGDGFRYWGQGTLVTVSS
notes: Parent: Nb24 WT; also called Exhausted +buried; source: E. coli Shuffle LysY, secreted to the medium, purified (His Mag Sepharose Excel beads, SEC Superdex 75)
- binding result [1]: binds

B2: Nb24 humanised variant, Frequency and Structure-based humanisation (Llamanade) (VHH)
VHH: B1 VHH with E1Q, V79L, D84N, K87R, P88A, T98R
notes: Parent: Nb24 WT; also called Frequency & structure-based; Frequency and Structure-based humanised variant; source: E. coli Shuffle LysY, secreted to the medium, purified (His Mag Sepharose Excel beads, SEC Superdex 75)
- binding result [1]: binds

B3: Nb24 WT nanobody (VHH)
VHH: QVQLQESGGGSVQAGGSLRLSCAASGYTDSRYCMAWFRQAPGKEREWVARINSGRDITYYADSVKGRFTFSQDNAKNTVYLQMDSLEPEDTATYYCATDIPLRCRDIVAKGGDGFRYWGQGTQVTVSS
notes: source: E. coli Shuffle LysY, secreted to the medium, purified (His Mag Sepharose Excel beads, SEC Superdex 75)
- Kd [1]: 79 nM

B4: Nb24 humanised variant, AbNatiV Exhaustive sampling (VHH)
VHH: B1 VHH with I70F, K87R, L123Q
notes: Parent: Nb24 WT; also called Nb24 Exhaustive; source: E. coli Shuffle LysY, secreted to the medium, purified (His Mag Sepharose Excel beads, SEC Superdex 75)
- Kd [1]: 75 nM

B5: Nb24 humanised variant, AbNatiV Enhanced sampling (VHH)
VHH: B1 VHH with V5L, G44E, L45R, I70F, A75S, K87R, L123Q
notes: Parent: Nb24 WT; also called Nb24 Enhanced; source: E. coli Shuffle LysY, secreted to the medium, purified (His Mag Sepharose Excel beads, SEC Superdex 75)
- Kd [1]: 68 nM

B6: Nb24 humanised variant, AbNatiV Enhanced sampling (+buried) (VHH)
VHH: B1 VHH with V5L, G44E, L45R, I70V, A75S, K87R, L123Q
notes: Parent: Nb24 WT; source: E. coli Shuffle LysY, secreted to the medium, purified (His Mag Sepharose Excel beads, SEC Superdex 75)
- binding result [1]: binds

B7: mNb6 humanised variant, AbNatiV Enhanced sampling (+buried) (VHH)
VHH: EVQLVESGGGLVQPGGSLRLSCAASGYIFGRNAMGWVRQAPGKGREWVSGITRRGSITYYADSVKGRFTISRDNAKNTVYLQMNSLRPEDTAVYYCAADPASPAYGDYWGQGTQVTVSS
notes: Parent: mNb6 WT
- binding result [2]: binds

B8: mNb6 humanised variant, AbNatiV Exhaustive sampling (+buried) (VHH)
VHH: B7 VHH with R45L, S49A, N84D, Q114L
notes: Parent: mNb6 WT; also called mNb6 Exhausted Sampling + buried; Exhausted +buried
- binding result [2]: binds

B9: mNb6 humanised variant, AbNatiV Exhaustive sampling (VHH)
VHH: B7 VHH with V37Y, R45L, S49A, Y80F, N84D, Q114L
notes: Parent: mNb6 WT; also called mNb6 Exhaustive
- Kd [2]: 15 nM

B10: mNb6 humanised variant, Frequency and Structure-based humanisation (Llamanade) (VHH)
VHH: B7 VHH with E1Q, R45L, S49A, V79L, P88A, A98R, Q114L
notes: Parent: mNb6 WT; also called Frequency & structure-based; Frequency and Structure-based variant
- binding result [2]: no binding (tested: 500 nM)

B11: mNb6 humanised variant, AbNatiV Enhanced sampling (VHH)
VHH: B7 VHH with V37Y, G44E, W47L, S49A, Y80F
notes: Parent: mNb6 WT; also called mNb6 Enhanced
- Kd [2]: 0.86 nM
